Test results from patent publication US5504197.

Target: PDGF-A (PDGF dimer composed of two A chains)

Question: Which 3T3 cell mitogenicity assay (tritiated thymidine incorporation) in the presence and absence of PDGF does the source give for “Platelet Derived Growth Factor-Associated Protein (PAP), rat, recombinant, expressed in bacteria” here?
Answer: The 3T3 cell mitogenicity assay (tritiated thymidine incorporation) in the presence and absence of PDGF was greater than 2 fold.
